T1: GFP–Rad55–Rad57 complex (His6–GFP–Rad55 and FLAG–Rad57) (S. cerevisiae, UniProt P38953 1-406; P25301 1-460)
T1 sequence (looked up) 1: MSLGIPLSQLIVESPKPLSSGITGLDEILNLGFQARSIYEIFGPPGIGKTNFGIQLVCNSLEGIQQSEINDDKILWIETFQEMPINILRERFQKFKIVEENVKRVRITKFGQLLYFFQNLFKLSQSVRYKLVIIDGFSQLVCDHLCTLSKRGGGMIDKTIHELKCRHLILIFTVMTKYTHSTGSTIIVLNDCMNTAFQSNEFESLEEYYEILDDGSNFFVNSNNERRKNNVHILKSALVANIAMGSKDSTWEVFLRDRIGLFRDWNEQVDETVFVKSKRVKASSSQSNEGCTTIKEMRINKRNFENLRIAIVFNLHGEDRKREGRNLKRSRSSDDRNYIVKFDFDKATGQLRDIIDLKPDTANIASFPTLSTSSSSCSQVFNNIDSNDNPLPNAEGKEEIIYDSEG
T1 sequence (looked up) 2: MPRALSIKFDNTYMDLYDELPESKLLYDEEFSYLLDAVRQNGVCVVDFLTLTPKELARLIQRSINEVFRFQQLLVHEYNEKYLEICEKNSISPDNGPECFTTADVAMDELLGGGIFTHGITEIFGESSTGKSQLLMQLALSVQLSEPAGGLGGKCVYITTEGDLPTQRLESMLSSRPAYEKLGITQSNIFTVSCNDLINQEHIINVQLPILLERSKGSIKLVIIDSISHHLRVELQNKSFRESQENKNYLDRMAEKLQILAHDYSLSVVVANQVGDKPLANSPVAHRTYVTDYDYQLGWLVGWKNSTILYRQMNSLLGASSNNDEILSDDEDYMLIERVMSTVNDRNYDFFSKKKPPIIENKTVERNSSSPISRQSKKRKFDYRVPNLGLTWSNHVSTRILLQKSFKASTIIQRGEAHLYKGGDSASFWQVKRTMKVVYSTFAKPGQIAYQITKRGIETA

B1: Rad51 (natural protein, S. cerevisiae, UniProt P25454 1-400, looked up)
chain: MSQVQEQHISESQLQYGNGSLMSTVPADLSQSVVDGNGNGSSEDIEATNGSGDGGGLQEQAEAQGEMEDEAYDEAALGSFVPIEKLQVNGITMADVKKLRESGLHTAEAVAYAPRKDLLEIKGISEAKADKLLNEAARLVPMGFVTAADFHMRRSELICLTTGSKNLDTLLGGGVETGSITELFGEFRTGKSQLCHTLAVTCQIPLDIGGGEGKCLYIDTEGTFRPVRLVSIAQRFGLDPDDALNNVAYARAYNADHQLRLLDAAAQMMSESRFSLIVVDSVMALYRTDFSGRGELSARQMHLAKFMRALQRLADQFGVAVVVTNQVVAQVDGGMAFNPDPKKPIGGNIMAHSSTTRLGFKKGKGCQRLCKVVDSPCLPEAECVFAIYEDGVGDPREEDE
B2: Rad51–K191R (natural protein, S. cerevisiae, UniProt P25454 1-400, looked up)
chain: B1 chain with K191R
B3: GST–Hed1–6xHis–GFP (natural protein, S. cerevisiae, UniProt Q03937 1-162, looked up)
chain: MQQRSNRRSCSYIPLGVHNNAEKSLCTEVAPARKNKRSITTSPIVNINVVERRLFNLELEKQQLRAKNLSENTGGGSPNGGAYLDAKKGVREQDQYQGGPSKELDRLQPPPSMKKSPPRKKKSLKDLIYETNKTFYQVDSNKVKYKVGLSKKQLLPSKTVDN

Test [1] has as its target T1, GFP–Rad55–Rad57 complex (His6–GFP–Rad55 …). In words: single-molecule ssDNA curtain assay.
Test [2] has as its target B1. Briefly: single-molecule ssDNA curtain assay.

The values below come from article doi:10.1101/2020.11.04.367136 (bioRxiv, 2020).

Residue numbers refer to the chain shown, from its start. Names and notes keep the numbering of the source.

What is called koff is the first-order rate constant of dissociation. High values mean a short-lived complex, low ones a long-lived complex. As to B1, the koff in test [1] turned out to be 0.00758 s⁻¹.
B2: the koff in test [1] was 0.0058 s⁻¹.
In the case of B3, the binding result in test [2] is “binds”.
